According to PMC12136220:

Molecular target: human recombinant Hsp60 (human), P10809
Assay: cryo-EM structure; purified LAP mixed with Hsp60 at 2:1, incubated 4 h at 4°C; Titan Krios 300 kV with K3 detector, cryoSPARC; LAP-Hsp60 map refined in C1, Hsp60 alone in C7, LAP dimer in C2
Settings: remark: other sources report otherwise

B1: human recombinant Hsp60, P10809 27-573 (natural protein)
chain: AKDVKFGADARALMLQGVDLLADAVAVTMGPKGRTVIIEQSWGSPKVTKDGVTVAKSIDLKDKYKNIGAKLVQDVANNTNEEAGDGTTTATVLARSIAKEGFEKISKGANPVEIRRGVMLAVDAVIAELKKQSKPVTTPEEIAQVATISANGDKEIGNIISDAMKKVGRKGVITVKDGKTLNDELEIIEGMKFDRGYISPYFINTSKGQKCEFQDAYVLLSEKKISSIQSIVPALEIANAHRKPLVIIAEDVDGEALSTLVLNRLKVGLQVVAVKAPGFGDNRKNQLKDMAIATGGAVFGEEGLTLNLEDVQPHDLGKVGEVIVTKDDAMLLKGKGDKAQIEKRIQEIIEQLDVTTSEYEKEKLNERLAKLSDGVAVLKVGGTSDVEVNEKKDRVTDALNATRAAVEEGIVLGGGCALLRCIPALDSLTPANEDQKIGIEIIKRTLKIPAMTIAKNAGVEGSLIVEKIMQSSSEVGYDAMAGDFVNMVEKGIIDPTKVVRTALLDAAGVASLLTTAEVVVTEIPKEEKDPGMGAMGGMGGGMGGGMF
  stoichiometry N: 7
